As a reminder, the Km is the concentration of substrate that gives half-maximal velocity. In general, kcat refers to the maximal rate divided by the concentration of active sites.

Drawing on publication PMC9405973, “Altered Conformational Landscape upon Sensing Guanine Nucleotides in a Disease Mutant of Elongation Factor-like 1 (EFL1) GTPase” (Biomolecules, 2022), this text covers Km and kcat for three molecules.

Substrate in data set [1]: Nc1nc2c(ncn2[C@@H]2O[C@H](COP(=O)(O)OP(=O)(O)OP(=O)(O)O)[C@@H](O)[C@H]2O)c(=O)[nH]1
The data set can be described thus: GTP hydrolysis by PNP-coupled Enzchek phosphate assay (MESG, 360 nm), pH 7.5, 5 mM MgCl2, 6 µM Efl1 alone, Michaelis-Menten fit. It counts as biochemical. Particulars: 25.0 °C. The protocol: (§1) Finally, we measured the enzyme kinetics of mutant Efl1 R1086Q as an isolated enzyme and bound to Sdo1 using an enzymatic coupled assay with a purine nucleoside phosphorylase (PNP) enzyme. This analysis was extended to another disease mutation (EFL1 M882K) also located in domain IV of the GTPase using the equivalent yeast variant, Efl1 L910K [17]. The Km and kcat kinetic parameters were calculated using non-linear regression assuming a Michaelis–Menten model (Supplementary Table S1). […] The catalytic constant for mutant R1086Q and the wild-type enzyme consisted of 0.67 min^−1, and it was 0.58 min^−1 for mutant Efl1 L910K. […] In line with the proposed role of Sdo1 as a guanine exchange factor of Efl1, previous results have shown that the interaction of wild-type Efl1 with Sdo1 impacted its Km for GTP, decreasing its value 2–3-fold. The Km values for the complexes formed between Sdo1 and Efl1 mutants decreased by half with respect to their cognate-free counterpart and differed from each other. […] The measured Km value comprises all the microscopic rate constants of the individual reactions occurring in the enzyme, which include the binding to the substrate and product and the corresponding conformational changes.
Hydrolysis of GTP was measured using the Enzchek Phosphate Assay kit (Molecular Probes) as described by Webb. […]
Reactions were initiated and the GTPase was added after 3 min. Time courses were followed by recording the change in absorbance at 360 nm in a Cary 60 UV -Vis spectrophotometer (Agilent Technologies). Background absorbance was recorded prior to the addition of the GTPase and subtracted from the sample signals. The slope of the measured time courses corresponded to the GTP hydrolysis rate. […] Data were analysed by nonlinear regression to the M ichaelis-Menten equation with the program Origin Version 5.0 (OriginLab, Co., Northampton, MA). […]
(§2) Maximum emission at 440 nm was replotted as a function of nucleotide concentration and analysed

The nature of data set [2]: Enzyme kinetics of GTP hydrolysis (PNP coupled assay, Michaelis–Menten). The format is biochemical, Saccharomyces cerevisiae. Particulars: enzyme in complex with Sdo1 (25 µM Sdo1). The protocol: as §1
Hydrolysis of GTP was measured using the Enzchek Phosphate Assay kit (Molecular Probes) as described by Webb. Standard reactions consisted of 100 µL containing 6 µM of Efl1 R1086Q and Efl1 L910K, 0.3 mM MESG, 1.0 U purine nucleoside phosphorylase (PNP) and the indicated amounts of GTP. Measurements done in the presence of effector protein contained 25 µM of Sdo1.
The reaction buffer consisted of 50 mM HEPES -KOH pH 7.5, 150 mM NaCl, 5 mM MgCl2.
Reactions were initiated and the GTPase was added after 3 min. Time courses were followed by recording the change in absorbance at 360 nm in a Cary 60 UV -Vis spectrophotometer (Agilent Technologies). Background absorbance was recorded prior to the addition of the GTPase and subtracted from the sample signals. The slope of the measured time courses corresponded to the GTP hydrolysis rate. The concentration of releas ed phosphate was estimated using a molar absorption coefficient at 360 nm of 14,386 M -1 cm-1 previously described in [2]. Data were analysed by nonlinear regression to the M ichaelis-Menten equation with the program Origin Version 5.0 (OriginLab, Co., Northampton, MA). […]
M HEPES-KOH pH 7.4, 2.5 mM magnesium acetate, 50 mM sucrose, 2 mM DTT, 0.1 mM PMSF, 0.1 mM benzamidine, 8 mM putrescine, 1 mM spermidine. […]
Dilution at the end of each titration was no longer than 2.5% of the initial volume. Data were corrected for the background signal by subtracting the fluorescence of the same ligand concentration without the GTPase in the reaction mixture.
as §2

B1: Efl1 L910K (Saccharomyces cerevisiae S288C; L910K) (protein)
chain: MPRVESETYKRLQNDPSCIRNICIVAHVDHGKTSLSDSLLASNGIISQRLAGKIRFLDARPDEQLRGITMESSAISLYFRVLRKQEGSDEPLVSEHLVNLIDSPGHIDFSSEVSAASRLCDGAVVLVDVVEGVCSQTVTVLRQCWTEKLKPILVLNKIDRLITELQLTPQEAYIHLSKVIEQVNSVIGSFFANERQLDDLFWREQLEKNENAEYIEKDDSGIYFNPTDNNVIFASAIDGWGFNIGQLAKFYEQKLGAKRENLQKVLWGDFYMDPKTKKIINNKGLKGRSLKPLFTSLILENIWKIYQNIITSRDSEMVEKIAKTLNIKLLARDLRSKDDKQLLRTIMGQWLPVSTAVLLTVIEKLPSPLESQTDRLNTILVSESDTAAMDPRLLKAMKTCDKEGPVSAYVSKMLSIPREELPVESKRIASSDELMERSRKAREEALNAAKHAGMVENMAMMDLNDNSKNTSDLYKRAKDTVMTPEVGEQTKPKPSRNNDVFCVVSEPSSALDLEFEYEGEDDSDSQDNFGLDFVPTDIDPNDPLSSMFEYEEEDPLLESIKQISEDVNDEVDDIFDEKEECLVAFARIYSGTLRVGQEISVLGPKYDPKCPEEHIETAIITHLYLFMGKELVPLDVCPSGNIVGIRGLAGKVLKSGTLIEKGVQGVNLAGVNFHFTPIVRVAVEPANPVEMSKLVRGLKLLDQADPCVHTYVENTGEHILCTAGELHLERCLKDLTERFAGIEITHSEPAIPYRETFLSASDMNPPQNSQLGRGVHELLLSQYKITFRTFPLSGKVTDFLSQHQNSIKNILKTSTSSMDPVIESTGSSFLDKKSLLVAFEEVINQEEKSRELLSGFKVKLAGFGPSRVGCNILLSQDNLLGSLFEGTPAAFEYSDSIKNGFQLAVSEGPKANEPVQGMCVLVESVHKMSQDEIESIEDPRYQQHIVDLSGRLITSTRDAIHEAFLDWSPRIMWAIYSCDIQTSVDVLGKVYAVILQRHGKIISEEMKEGTPFFQIEAHVPVVEAFGLSEDIRKRTSGAAQPQLVFSGFECIDLDPFWVPTTEEELEELGDTADRENIARKHMNAIRRRKGLFIEEKVVENAEKQRTLKKN
notes: recombinantly expressed in S. cerevisiae; isolated GTPase
On to B1, for which the Km in data set [1] worked out at 185 µM.

B2: Efl1 L910K • Sdo1: binary complex of mutant GTPase Efl1 L910K and effector Sdo1 (protein, UniProt P53893 1-1110; Q07953 1-250, looked up, variant L910K)
Ribosome assembly protein 1: MPRVESETYKRLQNDPSCIRNICIVAHVDHGKTSLSDSLLASNGIISQRLAGKIRFLDARPDEQLRGITMESSAISLYFRVLRKQEGSDEPLVSEHLVNLIDSPGHIDFSSEVSAASRLCDGAVVLVDVVEGVCSQTVTVLRQCWTEKLKPILVLNKIDRLITELQLTPQEAYIHLSKVIEQVNSVIGSFFANERQLDDLFWREQLEKNENAEYIEKDDSGIYFNPTDNNVIFASAIDGWGFNIGQLAKFYEQKLGAKRENLQKVLWGDFYMDPKTKKIINNKGLKGRSLKPLFTSLILENIWKIYQNIITSRDSEMVEKIAKTLNIKLLARDLRSKDDKQLLRTIMGQWLPVSTAVLLTVIEKLPSPLESQTDRLNTILVSESDTAAMDPRLLKAMKTCDKEGPVSAYVSKMLSIPREELPVESKRIASSDELMERSRKAREEALNAAKHAGMVENMAMMDLNDNSKNTSDLYKRAKDTVMTPEVGEQTKPKPSRNNDVFCVVSEPSSALDLEFEYEGEDDSDSQDNFGLDFVPTDIDPNDPLSSMFEYEEEDPLLESIKQISEDVNDEVDDIFDEKEECLVAFARIYSGTLRVGQEISVLGPKYDPKCPEEHIETAIITHLYLFMGKELVPLDVCPSGNIVGIRGLAGKVLKSGTLIEKGVQGVNLAGVNFHFTPIVRVAVEPANPVEMSKLVRGLKLLDQADPCVHTYVENTGEHILCTAGELHLERCLKDLTERFAGIEITHSEPAIPYRETFLSASDMNPPQNSQLGRGVHELLLSQYKITFRTFPLSGKVTDFLSQHQNSIKNILKTSTSSMDPVIESTGSSFLDKKSLLVAFEEVINQEEKSRELLSGFKVKLAGFGPSRVGCNILLSQDNLLGSLFEGTPAAFEYSDSIKNGFQLAVSEGPKANEPVQGMCVLVESVHKMSQDEIESIEDPRYQQHIVDLSGRLITSTRDAIHEAFLDWSPRIMWAIYSCDIQTSVDVLGKVYAVILQRHGKIISEEMKEGTPFFQIEAHVPVVEAFGLSEDIRKRTSGAAQPQLVFSGFECIDLDPFWVPTTEEELEELGDTADRENIARKHMNAIRRRKGLFIEEKVVENAEKQRTLKKN
Ribosome maturation protein …: MPINQPSGQIKLTNVSLVRLKKARKRFEVACYQNKVQDYRKGIEKDLDEVLQIHQVFMNVSKGLVANKEDLQKCFGTTNVDDVIEEIMHKGEIQLSEKERQLMLNKVNNEMLTIVSAKCINPVSKKRYPPTMIHKALQELKFSPVINKPAKLQALEAIKLLVSKQIIPIVRAKMKVKVAISEPSRQPELIEKISKLIASSPGESTKPELDPWTCTGLIDPVNYRDLMTLCDKKGTVQVLDMAVIDNTTHN
modifications: binary complex
For the molecule B2, in data set [2], the kcat came to 0.75 min⁻¹.

B3: Efl1 WT • Sdo1: binary complex of wild-type Efl1 GTPase and effector Sdo1 (protein, UniProt P53893 1-1110; Q07953 1-250, looked up)
Ribosome assembly protein 1: MPRVESETYKRLQNDPSCIRNICIVAHVDHGKTSLSDSLLASNGIISQRLAGKIRFLDARPDEQLRGITMESSAISLYFRVLRKQEGSDEPLVSEHLVNLIDSPGHIDFSSEVSAASRLCDGAVVLVDVVEGVCSQTVTVLRQCWTEKLKPILVLNKIDRLITELQLTPQEAYIHLSKVIEQVNSVIGSFFANERQLDDLFWREQLEKNENAEYIEKDDSGIYFNPTDNNVIFASAIDGWGFNIGQLAKFYEQKLGAKRENLQKVLWGDFYMDPKTKKIINNKGLKGRSLKPLFTSLILENIWKIYQNIITSRDSEMVEKIAKTLNIKLLARDLRSKDDKQLLRTIMGQWLPVSTAVLLTVIEKLPSPLESQTDRLNTILVSESDTAAMDPRLLKAMKTCDKEGPVSAYVSKMLSIPREELPVESKRIASSDELMERSRKAREEALNAAKHAGMVENMAMMDLNDNSKNTSDLYKRAKDTVMTPEVGEQTKPKPSRNNDVFCVVSEPSSALDLEFEYEGEDDSDSQDNFGLDFVPTDIDPNDPLSSMFEYEEEDPLLESIKQISEDVNDEVDDIFDEKEECLVAFARIYSGTLRVGQEISVLGPKYDPKCPEEHIETAIITHLYLFMGKELVPLDVCPSGNIVGIRGLAGKVLKSGTLIEKGVQGVNLAGVNFHFTPIVRVAVEPANPVEMSKLVRGLKLLDQADPCVHTYVENTGEHILCTAGELHLERCLKDLTERFAGIEITHSEPAIPYRETFLSASDMNPPQNSQLGRGVHELLLSQYKITFRTFPLSGKVTDFLSQHQNSIKNILKTSTSSMDPVIESTGSSFLDKKSLLVAFEEVINQEEKSRELLSGFKVKLAGFGPSRVGCNILLSQDNLLGSLFEGTPAAFEYSDSIKNGFQLAVSEGPLANEPVQGMCVLVESVHKMSQDEIESIEDPRYQQHIVDLSGRLITSTRDAIHEAFLDWSPRIMWAIYSCDIQTSVDVLGKVYAVILQRHGKIISEEMKEGTPFFQIEAHVPVVEAFGLSEDIRKRTSGAAQPQLVFSGFECIDLDPFWVPTTEEELEELGDTADRENIARKHMNAIRRRKGLFIEEKVVENAEKQRTLKKN
Ribosome maturation protein …: MPINQPSGQIKLTNVSLVRLKKARKRFEVACYQNKVQDYRKGIEKDLDEVLQIHQVFMNVSKGLVANKEDLQKCFGTTNVDDVIEEIMHKGEIQLSEKERQLMLNKVNNEMLTIVSAKCINPVSKKRYPPTMIHKALQELKFSPVINKPAKLQALEAIKLLVSKQIIPIVRAKMKVKVAISEPSRQPELIEKISKLIASSPGESTKPELDPWTCTGLIDPVNYRDLMTLCDKKGTVQVLDMAVIDNTTHN
modifications: binary complex
As to B3, the kcat in data set [2] was 0.64 min⁻¹.
